Measurements as given in US20060257938A1, “Method of screening for drugs that block ligand binding to a lipid binding protein” (priority 2005, published 2006).
Where a chain is given by its changes, count along the chain named.

B1: 72W 73T 74G (protein, listed as Rattus norvegicus)
chain: AFDGTWKVDRNENYEKFMEKMGINVVKRKLGAHDNLKLTITQEGNKFTVKESSNFRNIDVVFELGVDFAYSWTGGTELTGTWTMEGNKLVGKFKRVDNGKELIAVREISGNELIQTYTYEGVEAKRIFKKE
modifications: PEPTIDE (1)...(131) wild-type rat intestinal fatty acid binding protein
B2: 72T 74I (protein, listed as Rattus norvegicus)
chain: B1 chain with W72T, T73A, G74I
modifications: PEPTIDE (1)...(131) wild-type rat intestinal fatty acid binding protein
B3: 72T 73V 74S (protein, listed as Rattus norvegicus)
chain: B1 chain with W72T, T73V, G74S
modifications: PEPTIDE (1)...(131) wild-type rat intestinal fatty acid binding protein
B4: 72T 73Q 74A (protein, listed as Rattus norvegicus)
chain: B1 chain with W72T, T73Q, G74A
modifications: PEPTIDE (1)...(131) wild-type rat intestinal fatty acid binding protein
B5: 72S 73V 74V (protein, listed as Rattus norvegicus)
chain: B1 chain with W72S, T73V, G74V
modifications: PEPTIDE (1)...(131) wild-type rat intestinal fatty acid binding protein
B6: 72S 73L 74A (protein, listed as Rattus norvegicus)
chain: B1 chain with W72S, T73L, G74A
modifications: PEPTIDE (1)...(131) wild-type rat intestinal fatty acid binding protein
B7: 21Y 78I 102I 72A (protein, listed as Rattus norvegicus)
chain: B1 chain with M21Y, W72A, T73A, G74D, L78I, L102I
modifications: PEPTIDE (1)...(131) wild-type rat intestinal fatty acid binding protein
B8: 72T 73W 74L (protein, listed as Rattus norvegicus)
chain: B1 chain with W72T, T73W, G74L
modifications: PEPTIDE (1)...(131) wild-type rat intestinal fatty acid binding protein

Experiment: Probe fluorescence ratio response to oleic acid relative to ADIFAB2
Type: binding
Settings: response relative to ADIFAB2
Summary of the method: (§1)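 Fluorescently labeled rat intestinal FABP variants were read at two emission wavelengths, near the unbound maximum (about 420 to 480 nm) and the FFA-bound maximum (about 495 to 580 nm). R = Fλ1/Fλ2 after subtracting probe-free intensity; ΔR = R+agent − R0, normalized to ADIFAB2 (rI-FABP-L72A).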

| Molecule | DR/DR OA |
| --- | --- |
| B1 | 2.514 |
| B2 | 2.660 |
| B3 | 2.670 |
| B4 | 3.136 |
| B5 | 2.556 |
| B6 | 3.495 |
| B7 | 3.424 |
| B8 | 2.340 |

Experiment: Probe fluorescence ratio response to palmitoleic acid relative to ADIFAB2
Type: binding
Settings: response relative to ADIFAB2
From the text: (§2) In an alternate preferred embodiment, the protein is rI-FABP that has Ala substituted for Leu at position 72 (rI-FABP-L72A) with the resulting probe named ADIFAB2. […] Other probes useful in embodiments of the invention are shown in Tables 1-6 and are also described in U.S. application Ser. No. 11/085,792, filed Mar. 21, 2005 which is incorporated herein by reference. The indicated substitutions are with reference to the ADIFAB protein of SEQ ID NO: 2.
(§3) ADIFAB2 also has an altered spectral response, making it especially useful for measurements of FFAu in blood samples (Apple et al, Clinical Proteomics, (2004) 1:41-44, U.S. patent application Ser. No. 10/670,958). The wavelengths at the maximum intensities emitted by these fluorescently-labeled I-FABP's in the absence of FFA is about 420 to 480 nm. The emission wavelengths at the maximum intensities emitted by these fluorescently-labeled I-FABP's with FFA bound are between about 495 to 580 nm. Experiments typically involve measuring the fluorescence response within both emission maxima or at wavelengths for which the effect of interfering molecules such as hemoglobin can be eliminated as described in U.S. application Ser. No. 10/670958 and PCT/US2004/030521 and the calculation of the ratio ‘R’ of the two fluorescence intensities. The baseline value for this ratio, measured in the absence of analyte, is designated R0.
(§4) The intensity ratio (“R” value) is determined as follows. The ratio is calculated using the following formula: R=Fλ1/Fλ2 wherein, Fλ1 is the measured fluorescence intensities (intensity of sample with probe present minus intensity of sample without probe present) at wavelength 1 and Fλ2 is the measured fluorescence intensities (intensity of sample with probe present minus intensity of sample without probe present) at wavelength 2. Then, for a given probe, ΔR, the difference in R value between the measurement in the presence of the test compound (agent) and in the absence of the test compound (agent), is calculated as follows: ΔR=R+agent−R0 In some embodiments, the ΔR value may then be compared to some reference, for example, an agent with a known affinity for a given probe, by ΔR/ΔRreference. Measurements of fluorescence intensities are obtained using standard techniques.

| Molecule | DR/DR POA |
| --- | --- |
| B1 | 4.105 |
| B2 | 3.410 |
| B3 | 2.909 |
| B4 | 3.632 |
| B5 | 3.322 |
| B6 | 3.923 |
| B7 | 2.089 |
| B8 | 3.574 |

Experiment: Probe fluorescence ratio response to linoleic acid relative to ADIFAB2
Type: binding
Settings: response relative to ADIFAB2
Summary of the method: as §1

| Molecule | DR/DR LA |
| --- | --- |
| B1 | 3.099 |
| B2 | 3.156 |
| B3 | 2.611 |
| B4 | 3.163 |
| B5 | 3.085 |
| B6 | 3.455 |
| B7 | 2.879 |
| B8 | 2.819 |

Experiment: Probe fluorescence ratio response to stearic acid relative to ADIFAB2
Type: binding
Settings: response relative to ADIFAB2
From the text: as §2, §3, §4

| Molecule | DR/DR SA |
| --- | --- |
| B1 | 1.040 |
| B2 | 1.806 |
| B3 | 2.195 |
| B4 | 2.318 |
| B5 | 1.058 |
| B6 | 2.574 |
| B7 | 2.774 |
| B8 | 1.217 |

Experiment: Probe fluorescence ratio response to linolenic acid relative to ADIFAB2
Type: binding
Settings: response relative to ADIFAB2
Summary of the method: as §1

| Molecule | DR/DR LNA |
| --- | --- |
| B1 | 3.394 |
| B2 | 3.169 |
| B3 | 2.579 |
| B4 | 2.850 |
| B5 | 3.088 |
| B6 | 3.322 |
| B7 | 2.454 |
| B8 | 3.009 |

Experiment: Probe fluorescence ratio response to arachidonic acid relative to ADIFAB2
Type: binding
Settings: arachidonic acid; response relative to ADIFAB2
Summary of the method: as §1

| Molecule | DR/DR AA |
| --- | --- |
| B1 | 2.808 |
| B2 | 2.502 |
| B3 | 2.540 |
| B4 | 2.392 |
| B5 | 2.712 |
| B6 | 3.336 |
| B7 | 3.536 |
| B8 | 2.721 |

Experiment: Probe fluorescence ratio response to palmitic acid relative to ADIFAB2
Type: binding
Settings: response relative to ADIFAB2
Summary of the method: as §1

| Molecule | DR/DR PA |
| --- | --- |
| B1 | 2.934 |
| B2 | 2.476 |
| B3 | 2.629 |
| B4 | 3.473 |
| B5 | 2.091 |
| B6 | 3.293 |
| B7 | 1.870 |
| B8 | 2.727 |
